Source: patent publication US20230220346A1, “BIOLOGICALLY SYNTHESIZED HYDROXYAPATITE FOR BONE REGENERATION AND TISSUE ENGINEERING” (BIOVENTURES, LLC, priority 2019, published 2023)

Columns and labels:
[1] = tested on: MG-63 cell line; experiment: Alizarin Red S (ARS) biomineralization assay in MG-63; format: cell-based, human; conditions: MEMα/10% FBS with βGP (2 mM) plus the ALP (1 U/mL), 7 days
Method: (§1) Biomineralization assays and Alizarin Red S staining: All human and mouse cell lines and human peripheral blood mononuclear cells (MNCs) were maintained in MEMα/10% FBS with penicillin/streptomycin and glutamine in a 37° C. humidified incubator with 5% CO2. […] The medium was replaced after 4 days. Alizarin Red S staining was performed at room temperature by removing the culture medium, washing the cells twice with 1×PBS (pH 7.4), fixing the cells in 10% neutral buffered formalin (Richard-Allan Scientific, Kalamazoo, Mich., USA) for 30 min, rinsing twice with Milli-Q water, staining with Alizarin Red S for 30 min, and destaining twice in Milli-Q water. A ZEISS inverted fluorescence/brightfield microscope equipped with an Infinity 3 digital camera and software system was used for imaging.

[2] = tested on: Saos-2 cell line; experiment: Alizarin Red S (ARS) biomineralization assay in Saos-2; format: cell-based, human; conditions: MEMα/10% FBS with βGP (2 mM) plus the ALP (1 U/mL), 7 days
Method: as §1

[3] = tested on: MG-63 and Saos-2 cell lines; experiment: Alizarin Red S biomineralization assay: phosphate source comparison, titration, ascorbic acid (FIG. 1A, 1C, 1E-G); format: cell-based, human; conditions: FIG. 1E-G
Method: as §1

[4] = tested on: human blood mononuclear cells (MNCs); experiment: Alizarin Red S biomineralization assay in human blood mononuclear cells; format: cell-based; conditions: MEMα/10% FBS with αGP alone or CIP alone (the other missing), 7 days
Method: as §1
Coating cell culture plate with Collagen Type I, rat tail for mineralization assays: To coat a 48-well plate with Collagen Type I at 5 μg/cm^2, the stock solution was diluted to 25 μg/mL in 17.5 mM of acetic acid and aliquoted […] into each well. After incubating at room temperature for one hour, the Collagen Type I solution was removed. Each well was rinsed with 1×PBS (pH 7.4) and air-dried at room temperature. Human blood MNCs were suspended in the conditioned media and distributed into each well (1×10^5 cell/well) prior to a 7-day incubation. […]

B1: ALPL: Recombinant human tissue-nonspecific alkaline phosphatase (R&D Systems) (protein, listed as Homo sapiens)
chain: MISPFLVLAIGTCLTNSLVPEKEKDPKYWRDQAQETLKYALELQKLNTNVAKNVIMFLGDGMGVSTVTAARILKGQLHHNPGEETRLEMDKFPFVALSKTYNTNAQVPDSAGTATAYLCGVKANEGTVGVSAATERSRCNTTQGNEVTSILRWAKDAGKSVGIVTTTRVNHATPSAAYAHSADRDWYSDNEMPPEALSQGCKDIAYQLMHNIRDIDVIMGGGRKYMYPKNKTDVEYESDEKARGTRLDGLDLVDTWKSFKPRYKHSHFIWNRTELLTLDPHNVDYLLGLFEPGDMQYELNRNNVTDPSLSEMVVVAIQILRKNPKGFFLLVEGGRIDHGHHEGKAKQALHEAVEMDRAIGQAGSLTSSEDTLTVVTADHSHVFTFGGYTPRGNSIFGLAPMLSDTDKKPFTAILYGNGPGYKVVGGERENVSMVDYAHNNYQAQSAVPLRHETHGGEDVAVFSKGPMAHLLHGVHEQNYVPHVMAYAACIGANLGHCAPASSAGSLAAGPLLLALALYPLSVLF
modifications: (1)..(524) Human tissue nonspecific alkaline phosphatase (ALPL)
biomineralization (Alizarin Red S staining) [1]: biomineralization was observed | biomineralization (Alizarin Red S staining) [2]: biomineralization was observed

B2: CIP: calf intestinal alkaline phosphatase (protein, listed as Bos taurus)
chain: MQGACVLLLLGLHLQLSLGLVPVEEEDPAFWNRQAAQALDVAKKLQPIQTAAKNVILFLGDGMGVPTVTATRILKGQMNGKLGPETPLAMDQFPYVALSKTYNVDRQVPDSAGTATAYLCGVKGNYRTIGVSAAARYNQCKTTRGNEVTSVMNRAKKAGKSVGVVTTTRVQHASPAGAYAHTVNRNWYSDADLPADAQMNGCQDIAAQLVNNMDIDVILGGGRKYMFPVGTPDPEYPDDASVNGVRKRKQNLVQAWQAKHQGAQYVWNRTALLQAADDSSVTHLMGLFEPADMKYNVQQDHTKDPTLQEMTEVALRVVSRNPRGFYLFVEGGRIDHGHHDDKAYMALTEAGMFDNAIAKANELTSELDTLILVTADHSHVFSFGGYTLRGTSIFGLAPSKALDSKSYTSILYGNGPGYALGGGSRPDVNDSTSEDPSYQQQAAVPQASETHGGEDVAVFARGPQAHLVHGVEEETFVAHIMAFAGCVEPYTDCNLPAPTTATSIPDAAHLAASPPPLALLAGAMLLLLAPTLY
modifications: (1)..(533) Bovine intestine alkaline phosphatase (CIP)
dose dependence of biomineralization (titration assays) [3]: depended on the doses | biomineralization (Alizarin Red S staining) [4]: did not occur | biomineralization (Alizarin Red S staining) [1]: mineralized | biomineralization (Alizarin Red S staining) [2]: mineralized

B3: SAP: shrimp hepatopancreas alkaline phosphatase (protein, listed as Pandalus borealis)
chain: MIGRTTFIALFVKVLTIWSFTKGEDCVWDNDVDYPEYPPLILDSSFQLVLPVLEGDQRITSVQSGSELILACPGREISALGSEDAQATCLGGKLVEVDGKEWNIVELGCTKMASETIHRNLGQCGDQDLGIYEVIGFDLPTTGHFYELIRVCFDPANETTIFSENIVHGASIAAKDIDPGRPSFKTSTGFFSVSMISVYSQRNQLELMKNLLGDDELAATIIDPSKQFYFAKGHMAPDADFVTVVEQDATYYYINALPQWQAFNNGNWKYLEYDTRDLAEKHGTDLTVYSGGWGVLELEDINGNPVEIYLGLAQDKKVVPAPALTWKVIYEKDTNRAAAIVGINNPHITTAPEPLCTDICSSLTWLDFDFGDLVHGYTYCCSVADLRAAIPNVPDLGDVDILDE
modifications: (1)..(404) Shrimp alkaline phosphatase (rSAP)
biomineralization (Alizarin Red S staining) [1]: mineralized | biomineralization (Alizarin Red S staining) [2]: mineralized
